From patent publication US10617701B2, “Nutritional compositions containing phosphatidylethanolamine, sphingomyelin and docosahexaenoic acid” (Mead Johnson Nutrition Company, priority 2015, dated 2020)

System: embryonic mouse cortical cells
Assay: Functional neuronal maturation of cortical networks on microelectrode arrays (MEA recording, chronic treatment)
Type: cell-based
Conditions: cortical networks on MEAs
Method: Cortical cells were grown on multi-well microelectrode arrays (MEAs) and treated with 10 different experimental series, including different combinations of test agents (PE, SM, LF and DHA) and the activity was recoded at 4 different time points during the 4 weeks of functional neuronal maturation Cells growing on glass slides were treated in parallel for morphological and cell population analysis. These experiments aimed to elucidate whether the test compounds affect the functional and morphological neuronal maturation […] (see FIG. 1). […]
Primary cell culture for MEA recordings: In brief, frontal cortex tissue was harvested from embryonic day […] NMRI mice. […] Cultures on MEAs were incubated at 37° C. in a 10% CO2 atmosphere until ready for use, which usually is four weeks to three months after seeding. […]
Multichannel Recording: After establishing a stable activity pattern after 4 weeks, the neuronal networks on MEA chips are employed for substance testing. […] The signals routinely recorded by these neurochips are located in a range of 15-1800 […] . […]

B1: lactoferrin (protein, UniProt P24627 20-708, looked up)
Lactotransferrin: APRKNVRWCTISQPEWFKCRRWQWRMKKLGAPSITCVRRAFALECIRAIAEKKADAVTLDGGMVFEAGRDPYKLRPVAAEIYGTKESPQTHYYAVAVVKKGSNFQLDQLQGRKSCHTGLGRSAGWIIPMGILRPYLSWTESLEPLQGAVAKFFSASCVPCIDRQAYPNLCQLCKGEGENQCACSSREPYFGYSGAFKCLQDGAGDVAFVKETTVFENLPEKADRDQYELLCLNNSRAPVDAFKECHLAQVPSHAVVARSVDGKEDLIWKLLSKAQEKFGKNKSRSFQLFGSPPGQRDLLFKDSALGFLRIPSKVDSALYLGSRYLTTLKNLRETAEEVKARYTRVVWCAVGPEEQKKCQQWSQQSGQNVTCATASTTDDCIVLVLKGEADALNLDGGYIYTAGKCGLVPVLAENRKSSKHSSLDCVLRPTEGYLAVAVVKKANEGLTWNSLKDKKSCHTAVDRTAGWNIPMGLIVNQTGSCAFDEFFSQSCAPGADPKSRLCALCAGDDQGLDKCVPNSKEKYYGYTGAFRCLAEDVGDVAFVKNDTVWENTNGESTADWAKNLNREDFRLLCLDGTRKPVTEAQSCHLAVAPNHAVVSRSDRAAHVKQVLLHQQALFGKNGKNCPDKFCLFKSETKNLLFNDNTECLAKLGGRPTYEEYLGTEYVTAIANLKKCSTSPLLEACAFLTR
acute effect on neuronal network activity in vitro: acutely affect neuronal network activity
